Measurements published in publication doi:10.1101/2023.04.09.536162v1.

Substrate: C[C@@H](O)[C@H](N)C(=O)O
Test: purified protein
Settings: natural substrate

B1: NmLTA (Neptunomonas marina) (protein)
chain: MASNDSCIEDTVSFTSDNIAAAAPEIVQAMAQACQGNAQPYGGDALTQNVEAQLKAIFECDLQLFLVPTGSAANAISLAALTPPWGAILCHQESHINNDECGAPEFFTAGAKLIAVAGTHGKLDPQALTQAARNKRGDVHSVEPTTVSITQATEVGSIYALDELNEIGQICRNEGLKLHMDGARFANALSALGCTPAEMTWKAGVDVLSFGATKNGSLCAEAIILFDKSYAQEIAFRRKRGGHLLSKMRFLSAQMHAYLADDLWLTNARHANLMAARLAAGLSALSRVSLIAPTESNIIFCRMPTKMIAALQQQGFQFYHDRWGDGIVRLVTSFATTQAQVDTFIAAAAQLNQNTD
- Km: 12.3 mM
- kcat: 805.7 s⁻¹
